According to the nanobody polyreactivity screen of Harvey et al. (2022):

Assay: yeast display, Sf9 membrane polyspecificity reagent, FACS + sequencing; frameworks hold sequencing errors
Summary of the method: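 Nanobodies from a synthetic yeast display library (Saccharomyces cerevisiae BJ5465), induced 36–48 hours with galactose, were stained 1 hour at 4 °C with 10% biotinylated, detergent-solubilized Sf9 membrane reagent, enriched on streptavidin microbeads, then FACS-sorted. Anti-HA (expression) and streptavidin (reagent binding) fluorescence set low and high (top ~1%) gates. Polyreactivity labels come from the gate of origin. Genes were colony-PCR amplified, MiSeq 2 × 250 sequenced and filtered by CDR length.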

| Sequence | polyreactivity (PSR sort gate) |
| --- | --- |
| QVQLVESGGGLVQAGGSLRLSCAASGRTFSTNAMGWYSQAPGKERELVAAISARGGSTYYADSVKGRFTISRDNAKNTVYLLLTSLKPEDTAVDYCARRPGRYSYAFDYWGQGTQVTVSS | high polyreactivity |
| QVQLVESGGGLVQAGGSLRLSCAASGSIFTKYAMGWYRQAPGKEREFVAAITLSGGSTYYADSVKGRFTISRDNAKNTVYLQMNSLKPEDTAVYYCNAAYTYVTAWYYYWGQGTQVTVSS | high polyreactivity |
| QVQLVESGGGLVQPGGSLRLSCAASGRTFTKNAMGWYRQAPGKERELVAAISISGGSTYYADSVKGRFTISRDNAKNTVYLLMNSLKPEDTAVYYCAADVVTYLSYTLDYWGQGTQVTVSS | low polyreactivity |
| QVQLVESGGCLVQAGGSLRLSCAASGFTFSYYAMGWYRQAPGKERELVAAISSSSGTTYYADSVKRRFTISRDNANNTVYLQMNSLKPEDTAVYYCVVIARDGYDYWGQGTQVTVSS | high polyreactivity |
| QVQLVESGGGLVQAGGSLRLSCAASGSIFRAYVMGWYRQAPGKERELVAAISRGGSTNYADSVKGRFTISRDNAKNTVYLQMNSLKPEDSAVYYCAADWYFYSMYDEVEYWGQGTQVTVSS | low polyreactivity |
| QVQLVESGGGLVQAGGSLRLSCAASGIIFPLYAMGWYRQAPGKDRELVADITRVGSTYYADSVKGRFTISRDNAKNTVYLQMNSLKPEDTAVYYCNKQKRWTYSHYFPTTYDYWGQGTQVTVSS | high polyreactivity |
| QVQHVESGGGLVQAGGSLRLSCAASGSIFRIYAMGWYRQAPGKERELVAAISVSTGSRTYYADSVKGRFTISRDNAKNTVYLQMNSLKPEDTAVYYCNAESYYDYNYWGQGTQVTVSS | low polyreactivity |
| QVQLVESGGGLVQAGGSLRLSCAASGRTFRAYAMGWYRQAPGKERELVAAISRSGGRTYYADSVKGRFIISRDNAKITVYLQMNSLKPEDTAVYYCAAGSNIWGQGTQVTVSS | high polyreactivity |
| QVQLVESGGGLVQAGGSLRLSCAASGFIFRDYEMGWYRQAPGKERELVAAISWRGGTYYADSVKGRFTISRDNAKNTVYLQMNSLKPEDTAGYYCNATRYRLRPSGVRYKYNYWGQGTQVTVSS | low polyreactivity |
| QVQLVESGGGLVQAGGSLRLSCAASGLIFPYYVKVWYRQAPGKERELVAAISWNGSSTYYADSVKGRFTISRDNAKNTVYLQMNSLKPEDTAVYYCAASYGYFEDYGYWGQGTQVTVSS | low polyreactivity |
| QVQLVESGGGLVQAGGSLRLSCAASGRTFVIYARGWYRQAPGKEWALVAAINWRGGSTYYADSVKGRFTISRDNAKNTVYLQMNSLKPEDTAVYYCAADTGWWWLYDYWGQGTQVTVSS | high polyreactivity |
| QVQLVESGGGLVQAGGSLRLSCAASGGIIDWYVMGWYRQAPGKERELVAAISYNGGATYYADSVKGRFTISRDNAKNTVYLQMNSLKPEDTAVYYCAAGVTWPYRYVWYVYWGQGTQVTVSS | low polyreactivity |
| QVQLEESGGGLVQAGGSLRLSCAPSGFIFAWYAMGCYRQAPGKERELVATISSSGARTYYADSVKGRFTISRDNAKNTVYLQMNSLKPEDTAVYYCAVGSVGRLKFYYWGQGTQVTVSS | high polyreactivity |
| QVQLVESGGGLVQAGGSLRLSCAASGGTSYAYTMGWYRQAPGKERELVAAISGSTGSTYYADSVKGRFTISRDNAKNTVYLQMNSLKPEDTAVYYCNADISSLYSLSWFRYWYDYWGQGTQVTVSS | low polyreactivity |
| QVQLVESGGGLVQAGGSLRLSCAASGFTFIRYAMGWYRQAPGKERELVAAIRGTGTSTYYADSVKGRFTISRDNAKNTVYLQMNSLKPEDTAVYYCNKVAGRSPYTRYDYWGQGTQVTVSS | low polyreactivity |
| QVQLVESGGGLVQAGGSLRLSCAASGRIFLGYTMGWYRQAPGKERELVAAISYSGGSTYYADSVKGRFTISRDYAKNTVYFQMNSLKPEDTAVYYCNKVYSIRGYWGQGTQVTVSS | high polyreactivity |

| Sequence | polyreactivity (PSR sort gate) |
| --- | --- |
| QVQLVESGGGLVQAGGSLRLSCAASGIIFRRYAMGWYRQAPGKERELVAAISSSGGNTYYADSVKGRFTISRDNAKNTVYLQMYSLKPEDTAVYYCAARSQIYYRYRSYGYWGQGTQVTVSS | high polyreactivity |
| QVQLVESGGGLVQAGGSLRLSCAASGRIFTGYALGWYRQAPGKERELVAAISRGGSTNYADSVKGRFTISRDNAKNTVYLQMNSLKPEDTAVYYCAAGVHWDRGDYWGQGTQVTVSS | low polyreactivity |
| QVQLVESGGGLVQAGGILRLSCAASGFIFYHYAMGWYRQAPGKERELVASITSGGRTYYADSVKGRFTISRDNAKNTVSLQMNRLKPEDTAVYYCAAAYYYYSSPRFTTGMDYWGQGTQVTVSS | high polyreactivity |
| QVQLVESGGGLVQAGGSLRLSCAASGSIFHGNAMGWYRQAPGKERELVAAITGRGVSTYYADSVKGRFTISRDNAKNTVYLQMKSLKPEDTAVYYCAAVRSKYWYYQGGYSSYGYWGQGTQVTVSS | high polyreactivity |
| QVQLVESGGGLVQAGGSLRLSSAASGLIFFTYAMGWYRQAPGKERELVATISRGGRTKYADSVKGRFTISRDNAKNSVYLQMNSLKPEDTAVYYCAAYLSRSYYAYDYWGQGTQVTVSS | high polyreactivity |
| QVQLVESGGCLVQAGGSLRLSCAASGLTFSWYAMGWYRQAPGKERELVAAISTRGGRTYYADSVKGRFTISRDNAKNTVYLQMNSLKPEDTAVYYCAAGVSYRYLWLVDYWGQGTQVTVSS | high polyreactivity |
| QVQLVESGGGIVQAGGSLRLSCAASGRTFIRYTRGWYRQAPGKERELVGSIRYSGASTSYADSVKGRFTISRDNAKNTVYLQMNSLKPEDTAVYYCAARFGRYSHRYYYWGQGTQVTVSS | high polyreactivity |
| QVQLVESGGGLVQAGGRLRLSCAASGRTLYRYVMVWYRQAPWKERELVAAISATAGSTYYADSVKGRFTISRDNAKNTVYLQMNSLTPEDTAVYYCAAEGYTLWYWLEFEYWGQGTQVTVSS | high polyreactivity |
| QVQLVESGGGLVQAGGRLRLSCAASGSTFIDYAMGWYIHAPGKERELVAAITWDGSSTYYADSVKGRFTISRDNAKNTVYLQMNSLKPEDTAVYYCATDYAGQYPVDGQPIHDYWGQGTQVTVSS | low polyreactivity |
| QVQLVESGGGLVQAGGSLRLSCAASGFIFVLYAMGWDRQAPGKERELVAAINGGSSTNYADSVKGRFTISRDNAKNTVYLQMNSLKPEDTAVYYCAADVIPDGVKKPRMYYWGQGTQVTVSS | low polyreactivity |
| QVQLVESGGGLVQAGGSLRLSCAASGRIFTRYAMGWYRQAPGKERELVAAINSGGSTKYADSVKGRFTISRDNAKHTVYLQMNSLKPEDTAVYYCNACYWWYGYDYWGQGTQVTVSS | high polyreactivity |
| QVQLVESGGGLVQAGGSLRLSCAGSGRIFQRNDMGWYRQAPGKARELVAGITGCGGRTYYADSVKGRFTISRDNEKNTVYLQMNSLKPEDTAVYYCAAALWSSRGRVLSRRDYWGQGTQVTVSS | high polyreactivity |
| QVQLVESGGGLVQAGGSLRLSCAASGVNAMGWYRQAPGKEREFVAAITSIGGSTYYADSVKGRFTISRDNAKNTVYLQMNSLKPEDTAVYYCNTDRGPVKVSPLYESWGQGTQVTVSS | low polyreactivity |
| QVQLVESGGGLVQAGGSLRLSCAPSGSTFPWNAMGWYRQAPGKERELVAAIRTGGGRTYYADSVKGRFTISRDNAKNTVYLQMNSLKPEDTAVYYCNAYFTYWSQLYYWGQGTQVTVSS | high polyreactivity |
| QLQLVESCGVLVQAGGSLRLSCAASGRTHGNNAMGCYRQAPGKERELVAITYRGGSTYYADSVKGRFTISRDNAKNTVYLQMNSLKPEDTAVYYCNVDIISKVDTNKYEYWGQGTQVTVSS | low polyreactivity |
| QVQLVESGGGLVQAGGSLRLSCAASGSIFRLYAMGWYRQAPGKEREFVARIRWRGGCTNYADSVKGRITISRDNAKNTVYLQMNTLKPEDTAVYYCAVKGAGGPKYDYWGHGTQVTVSS | high polyreactivity |
